Results taken from paper PMC3964918 (RNA, 2014).
Read-outs that look alike come from different tables or passages of the source. Blank lines part the entries; values can stand above or below the binder they belong to.

Key:
Assay in all cases: far-Western, overlay or dot blot
[1] = molecular target: T1, AnaPnp, recombinant Anabaena PNPase (Anabaena PCC7120, UniProt Q8YP11 1-718)
T1 sequence (looked up): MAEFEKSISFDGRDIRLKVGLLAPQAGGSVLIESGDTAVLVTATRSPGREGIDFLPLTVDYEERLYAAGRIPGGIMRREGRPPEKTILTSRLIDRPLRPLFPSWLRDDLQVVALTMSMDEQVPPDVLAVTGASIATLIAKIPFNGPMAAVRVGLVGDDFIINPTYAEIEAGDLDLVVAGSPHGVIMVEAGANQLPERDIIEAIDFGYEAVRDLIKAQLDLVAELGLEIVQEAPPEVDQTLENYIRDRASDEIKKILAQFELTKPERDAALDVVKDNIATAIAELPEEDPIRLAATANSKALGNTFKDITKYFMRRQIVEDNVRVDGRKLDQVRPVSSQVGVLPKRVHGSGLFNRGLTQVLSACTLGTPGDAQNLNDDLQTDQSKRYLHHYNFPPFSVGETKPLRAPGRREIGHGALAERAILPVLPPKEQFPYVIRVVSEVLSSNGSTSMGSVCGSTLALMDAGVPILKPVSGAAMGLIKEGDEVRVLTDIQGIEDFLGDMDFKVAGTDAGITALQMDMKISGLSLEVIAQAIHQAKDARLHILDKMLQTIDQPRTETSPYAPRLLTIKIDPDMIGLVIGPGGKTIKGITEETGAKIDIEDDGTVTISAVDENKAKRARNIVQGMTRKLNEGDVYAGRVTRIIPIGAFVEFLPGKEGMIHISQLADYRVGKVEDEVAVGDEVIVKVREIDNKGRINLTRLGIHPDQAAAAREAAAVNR

[2] = molecular target: T2, SynPnp, recombinant Synechocystis PNPase (Synechocystis PCC6803, UniProt P72659 1-718)
T2 sequence (looked up): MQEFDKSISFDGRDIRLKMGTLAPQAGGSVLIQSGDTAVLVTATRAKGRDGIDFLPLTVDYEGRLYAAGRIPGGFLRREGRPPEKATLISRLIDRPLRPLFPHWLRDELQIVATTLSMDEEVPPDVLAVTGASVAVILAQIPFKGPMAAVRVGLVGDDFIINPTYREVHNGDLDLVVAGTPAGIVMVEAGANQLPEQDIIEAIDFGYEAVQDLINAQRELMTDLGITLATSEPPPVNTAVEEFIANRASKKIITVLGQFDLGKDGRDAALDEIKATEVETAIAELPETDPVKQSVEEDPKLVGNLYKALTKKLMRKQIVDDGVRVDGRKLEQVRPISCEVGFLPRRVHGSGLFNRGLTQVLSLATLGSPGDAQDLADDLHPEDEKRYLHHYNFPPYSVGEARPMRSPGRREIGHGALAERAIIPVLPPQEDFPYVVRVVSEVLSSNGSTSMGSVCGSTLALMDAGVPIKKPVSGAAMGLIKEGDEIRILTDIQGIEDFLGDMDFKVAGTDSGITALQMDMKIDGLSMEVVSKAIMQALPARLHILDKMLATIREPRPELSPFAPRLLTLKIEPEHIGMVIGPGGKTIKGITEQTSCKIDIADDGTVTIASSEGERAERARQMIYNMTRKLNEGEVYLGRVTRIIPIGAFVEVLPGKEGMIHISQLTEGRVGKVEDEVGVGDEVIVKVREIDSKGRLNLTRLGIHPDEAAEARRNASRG

[3] = molecular target: T2, SynPnp, recombinant Synechocystis PNPase; remark: listed apart in the source

binding result [1]: binds
B1: GFP-C4a (GFP fused at its C-terminus to C4 with four flanking residues at both ends) (peptide)
chain: STANRRRRRRSSASDSD

binding result [2]: binds
B2: synthetic nonapeptide of C4 (peptide)
peptide: RRRRRRSSA

binding result [3]: binds
B3: GFP-C4b (GFP fused at its C-terminus to the C4 nonapeptide) (peptide)
chain: RRRRRRSSA
